# According to patent US20050042747A1, “Hivgp120-induced bob/gpr15 activation” (priority 2001, published 2005):
# B1: MIP-1α: natural ligand of CCR5 (protein, UniProt P10147 24-92, looked up)
# C-C motif chemokine 3: SLAADTPTACCFSYTSRQIPQNFIADYFETSSQCSKPGVIFLTKRSRQVCADPSEEWVQKYVSDLELSA
# B2: RANTES: natural ligand of CCR5 (protein, UniProt P13501 24-91, looked up)
# C-C motif chemokine 5: SPYSSDTTPCCFAYIARPLPRAHIKEYFYTSGKCSNPAVVFVTRKNRQVCANPEKKWVREYINSLEMS
# B3: MIP-1β: natural ligand of CCR5 (protein, UniProt P13236 24-92, looked up)
# C-C motif chemokine 4: APMGSDPPTACCFSYTARKLPRNFVVDYYETSSLCSQPAVVFQTKRSKQVCADPSESWVQEYVYDLELN
# modifications: ends and bridges not checked
# notes: natural ligand of CCR5
# Test system: HT-29 cells
# Test: Calcium signaling in HT-29 cells (Fluo 4, confocal microscope)
# Format: cell-based, human
# Description: HT-29 cells (from ATCC) were grown in DMEM-F12 with 10% bovine calf serum, and were used 24-48 hours after plating. The Ghost (3) cells were obtained from the AIDS Research and Reference Reagent Program, and were grown DMEM with 10% bovine calf serum supplemented with 500 μg/ml G418, 100 μg/ml hygromycin, and 1 μg/ml puromycin.^27 These cells were used 24 to 96 hours after plating.
# Calcium studies were done on HT-29 cells and Ghost (3) cells loaded with Fluo 4. The cells were placed in Locke's buffer containing 5 μg/ml Fluo 4 AM ester (Molecular Probes) for 20 to 30 minutes, then in Locke's buffer for an additional 30 minutes before testing. Various concentrations of gp120IIIB (X4 trophic), gp120CM235 (R5 trophic), gp120mN (X4 trophic), gp12093TH975 (nonsyncytium-inducing primary isolate from an asymptomatic subject, trophism undetermined but likely R5), and gp120SF2 (X4R5 trophic), ranging from 10 nM to less than 1 pM, were added in Locke's buffer.^6 The gp120 proteins were obtained from the AIDS Research Reagent Referral Program. Some HT-29 cells were given one of the following pretreatments: 50 μg/ml anti-Bob37 overnight, 1 μg/ml pertussis toxin overnight, or 4.6 μg/ml U73122 for one hour. With the HT-29 cells only, similar tests were also performed with SDF-1, MIP-1α, MIP-1β, and RANTES rather than gp120. The cells were visualized every 4 seconds in a confocal microscope, using 488 nm argon laser excitation and detection filters appropriate for fluorescein-like dyes.
# For the first two or three days after plating, gp120 induces an immediate (within 4 seconds) calcium flux in undifferentiated HT-29 cells. The cells had previously been loaded with Fluo-4 AM ester (Molecular Probes, Eugene Oreg.) 5 micrograms/ml in the presence of Pleuronic F-127 0.02% in Locke's buffer for 30 minutes, then incubated at room temperature for an additional 30 minutes. Gp120IIIB was added while the cells were on an inverted confocal microscope using a 488 nm argon laser, with detection filters suitable for fluorescein-like dyes. […]
row,Molecule,"calcium signaling in HT-29 cells, in words"
1,B1,induced similar calcium signaling
2,B2,induced similar calcium signaling
3,B3,induced similar calcium signaling
